Laboratory results: US20200040059A1
Numbering of substitutions follows the chain as printed. Numbers in names are those of the source.

T1: CD226 (human) (UniProt Q15762)
T1 sequence: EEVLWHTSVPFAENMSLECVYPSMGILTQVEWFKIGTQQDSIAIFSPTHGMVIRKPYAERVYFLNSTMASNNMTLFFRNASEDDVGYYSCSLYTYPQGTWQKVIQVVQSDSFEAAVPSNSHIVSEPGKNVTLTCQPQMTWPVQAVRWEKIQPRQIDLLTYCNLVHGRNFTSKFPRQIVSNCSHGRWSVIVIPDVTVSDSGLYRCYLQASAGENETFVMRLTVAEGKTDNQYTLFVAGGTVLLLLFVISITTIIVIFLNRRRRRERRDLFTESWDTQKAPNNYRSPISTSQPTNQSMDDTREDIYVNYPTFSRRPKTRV

B1: CD155 variant IgV-Fc P18F, S65A, S67V, F91S, L104M, G111R (Fc fusion, not shown: a dimerising Fc or GST; small tags and cut ends)
chain: WPPPGTGDVVVQAPTQVFGFLGDSVTLPCYLQVPNMEVTHVSQLTWARHGESGSMAVFHQTQGPAYVESKRLEFVAARLGAELRNASLRMSGLRVEDEGNYTCMFVTFPQRSRSVDIWL
B2: CD155 variant IgV-Fc V9L, P18L, L79P, M90I, F91S, T102S, L104M, G111R (Fc fusion, not shown: a dimerising Fc or GST; small tags and cut ends)
chain: B1 chain with V9L, F18L, A65S, V67S, L79P, M90I, T102S
B3: CD155 variant IgV-Fc P18T, D23G, S24A, N35D, H49L, L79P, F91S, L104M, G111R (Fc fusion, not shown: a dimerising Fc or GST; small tags and cut ends)
chain: PGTGDVVVQAPTQVTGFLGGAVTLPCYLQVPDMEVTHVSQLTWARLGESGSMAVFHQTQGPSYSESKRLEFVAARPGAELRNASLRMSGLRVEDEGNYTCMFVTFPQRSRSVDIWL
B4: variant PD-L2 IgV-Fc E44D, S67L, Q72H, Q82R, V89D (Fc fusion, not shown: a dimerising Fc or GST; small tags and cut ends)
chain: FTVTVPKELYIIEHGSNVTLECNFDTGSHVNLGAITASLQKVDNDTSPHRERATLLEEQLPLGKALFHIPHVQVRDEGQYRCIIIYGDAWDYKYLTLK
B5: variant PD-L2 IgV-Fc I12V, I13V, H15Q, T47A, Q82R, V89D (Fc fusion, not shown: a dimerising Fc or GST; small tags and cut ends)
chain: B4 chain with I11V, I12V, H14Q, D43E, T46A, L66S, H71Q
B6: variant PD-L2 IgV-Fc I13V, H15Q, T47A, H69L, R76G, V89D (Fc fusion, not shown: a dimerising Fc or GST; small tags and cut ends)
chain: B4 chain with I12V, H14Q, D43E, T46A, L66S, H68L, H71Q, R75G, R81Q
B7: variant PD-L2 IgV-Fc I13V, H15Q, Q82R (Fc fusion, not shown: a dimerising Fc or GST; small tags and cut ends)
chain: B4 chain with I12V, H14Q, D43E, L66S, H71Q, D88V
B8: variant PD-L2 IgV-Fc I13V, H15Q, Q82R, V89D (Fc fusion, not shown: a dimerising Fc or GST; small tags and cut ends)
chain: B4 chain with I12V, H14Q, D43E, L66S, H71Q
B9: variant PD-L2 IgV-Fc H15Q, V31M, S67L, Q82R, V89D (Fc fusion, not shown: a dimerising Fc or GST; small tags and cut ends)
chain: B4 chain with H14Q, V30M, D43E, H71Q
B10: variant PD-L2 IgV-Fc I13V, H15Q, R76G, D77N, Q82R, V89D (Fc fusion, not shown: a dimerising Fc or GST; small tags and cut ends)
chain: B4 chain with I12V, H14Q, D43E, L66S, H71Q, R75G, D76N
B11: variant PD-L2 IgV-Fc I13V, H15Q, T47A, Q82R, V89D (SEQ ID NO 1544) (Fc fusion, not shown: a dimerising Fc or GST; small tags and cut ends)
chain: B4 chain with I12V, H14Q, D43E, T46A, L66S, H71Q
B12: variant PD-L2 IgV-Fc H15Q, T47A (Fc fusion, not shown: a dimerising Fc or GST; small tags and cut ends)
chain: B4 chain with H14Q, D43E, T46A, L66S, H71Q, R81Q, D88V
B13: variant PD-L2 IgV-Fc I13V, H15Q, V31A, N45S, Q82R, V89D (Fc fusion, not shown: a dimerising Fc or GST; small tags and cut ends)
chain: B4 chain with I12V, H14Q, V30A, D43E, N44S, L66S, H71Q
B14: variant PD-L2 IgV-Fc I13V, H15Q, T47A, Q82R (Fc fusion, not shown: a dimerising Fc or GST; small tags and cut ends)
chain: B4 chain with I12V, H14Q, D43E, T46A, L66S, H71Q, D88V
B15: variant PD-L2 IgV-Fc H15Q, V89D (Fc fusion, not shown: a dimerising Fc or GST; small tags and cut ends)
chain: B4 chain with H14Q, D43E, L66S, H71Q, R81Q
B16: variant PD-L2 IgV-Fc I13V, H15Q, V89D (Fc fusion, not shown: a dimerising Fc or GST; small tags and cut ends)
chain: B4 chain with I12V, H14Q, D43E, L66S, H71Q, R81Q
B17: variant PD-L2 IgV-Fc I13V, S67L, Q82R, V89D (Fc fusion, not shown: a dimerising Fc or GST; small tags and cut ends)
chain: B4 chain with I12V, D43E, H71Q
B18: variant PD-L2 IgV-Fc H15Q, T47A, H69L, Q82R, V89D (Fc fusion, not shown: a dimerising Fc or GST; small tags and cut ends)
chain: B4 chain with H14Q, D43E, T46A, L66S, H68L, H71Q

target: T1, CD226 (human); test: flow cytometry, CD226-expressing cells

| Fold Change from CD155-ECD | MFI at 11.1 nM | Binder |
| --- | --- | --- |
| 0.06 fold | 901 MFI | B1 |
| 0.06 fold | 910 MFI | B2 |
|  | 987 MFI | B3 |

target: PD-1 (Homo sapiens (Human)) (UniProt Q15116); test: flow cytometry, Jurkat/PD-1 cells
Sequence (Q15116 21-288 limits assumed): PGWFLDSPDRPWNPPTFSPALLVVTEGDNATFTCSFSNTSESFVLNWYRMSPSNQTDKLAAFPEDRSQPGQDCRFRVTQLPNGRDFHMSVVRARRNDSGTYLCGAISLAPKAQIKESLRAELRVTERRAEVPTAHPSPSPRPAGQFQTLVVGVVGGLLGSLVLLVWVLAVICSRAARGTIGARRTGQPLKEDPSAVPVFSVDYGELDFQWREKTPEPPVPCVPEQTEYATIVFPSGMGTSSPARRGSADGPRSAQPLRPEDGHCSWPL

| MFI at 50 nM | Binder |
| --- | --- |
| 51500 | B4 |
| 61200 | B5 |
| 54300 | B6 |
| 76100 | B7 |
| 49500 | B8 |
| 67400 | B9 |
| 33100 | B10 |
| 63300 | B11 |
| 26600 | B12 |
| 68000 | B13 |
| 89100 | B14 |
| 17700 | B15 |
| 28700 | B16 |
| 59000 | B17 |
| 65600 | B18 |

target: PD-1 (Homo sapiens (Human)) (UniProt Q15116); test: flow cytometry, Jurkat/PD-1 cells; vs wildtype PD-L2 IgV-Fc

| Fold increase over wildtype PD-L2 IgV-Fc | Binder |
| --- | --- |
| 5.23 fold | B4 |
| 6.22 fold | B5 |
| 5.52 fold | B6 |
| 7.74 fold | B7 |
| 5.03 fold | B8 |
| 6.85 fold | B9 |
| 3.36 fold | B10 |
| 6.43 fold | B11 |
| 2.7 fold | B12 |
| 6.91 fold | B13 |
| 9.05 fold | B14 |
| 1.8 fold | B15 |
| 2.92 fold | B16 |
| 5.99 fold | B17 |
| 6.66 fold | B18 |
